We go through four molecules from publication PMC11323569 (mBio, 2024).

Data set [1] addresses PrgKEC, extracytoplasmic region of PrgK (residues 273-871) (Enterococcus faecalis (plasmid pCF10)) (UniProt Q5G3P4). The experiment in a line: […], pH 5.0, 100 mM NaCl; […].
The data set “non-reducing SDS-PAGE” deals with the molecule itself. The experiment in a line: non-reducing SDS-PAGE.
Data set [2] concerns the molecule itself. The experiment in a line: […], pH 5.0, 100 mM NaCl; […].

The molecule “PrgL_(32-208), extracellular domain of PrgL (domain or fragment)” gave a stoichiometry N (PrgL32-208 per PrgKEC (1:1)) in data set [1] of 1.

B1: PrgK_(CHAP) (residues 723-871) (domain or fragment)
chain: GTPIGGSGSEVFAQYKEKMQPLPTDRETKAGQGWPGNAYAPGNCTWYVFNRFAQLGKSIHPTMGNANQWVHNYSQTPGATLESAPKKGDAVIFTNGVAGSSTQYGHVAYVEHVNSDGSFVISEMNVSGEYSMNWRVLKKEAGEYFMRLN
notes: also called CHAP domain; source: E. coli BL21(DE3), purified (IMAC fractions)
On to B1, for which the binding result in “non-reducing SDS-PAGE” is listed as “binds”.

B2: PrgKEC, extracytoplasmic region of PrgK (residues 273-871) (domain or fragment)
chain: ASSTQKPAIVQEEEDLTASWTYFTKLDAQHTDDNNLFYSNIDEVLFYMNYRYDDFKLLDMDSTGTKNFETILSELWTALNGKKPDYQLKTMQSLETDKKSSYFIEEEQAKHYQEIKKELGYQTLDDLLSFPVKTDALIVNKRYGYDKSKEKLTLYQGIDVLIEDNQPFHSPMNGQIVSVPDTETLVIEKEKVARLTIRGVNTLRLTKGMDVEEGTFLGNTKNSTVTFQYEKYKKETKDWFFVNPAFYFPRVTYTQTTLLGSADFSPGASVEKRAQAVYDYLSKKGYTKEGISAILGNFSVESGINPKRAEGDYLNPPVGAHGNSWDEPSWLSMGGPQIYGGRFPNILHRGLGLGQWTDTADGGRRHTLLLDYAKGKNKKWYDLQLQLDFIFDGDAPGSRTAADNVARSKVAATIPELTTYFLTVWEGNPGDKLGERIQAAQNWFTFFSRSGTPIGGSGSEVFAQYKEKMQPLPTDRETKAGQGWPGNAYAPGNCTWYVFNRFAQLGKSIHPTMGNANQWVHNYSQTPGATLESAPKKGDAVIFTNGVAGSSTQYGHVAYVEHVNSDGSFVISEMNVSGEYSMNWRVLKKEAGEYFMRLN
notes: also called PrgKEC wild type; extracellular domain of PrgK; source: E. coli BL21(DE3), purified (Ni-NTA, PreScission elution, Superdex-200 SEC)
In the case of B2, in data set [2], the “stoichiometry N” value is 2 chains in the oligomer (dimer).

B3: PrgK_(SLT-CHAP) (residues 530-871) (domain or fragment)
chain: LLGSADFSPGASVEKRAQAVYDYLSKKGYTKEGISAILGNFSVESGINPKRAEGDYLNPPVGAHGNSWDEPSWLSMGGPQIYGGRFPNILHRGLGLGQWTDTADGGRRHTLLLDYAKGKNKKWYDLQLQLDFIFDGDAPGSRTAADNVARSKVAATIPELTTYFLTVWEGNPGDKLGERIQAAQNWFTFFSRSGTPIGGSGSEVFAQYKEKMQPLPTDRETKAGQGWPGNAYAPGNCTWYVFNRFAQLGKSIHPTMGNANQWVHNYSQTPGATLESAPKKGDAVIFTNGVAGSSTQYGHVAYVEHVNSDGSFVISEMNVSGEYSMNWRVLKKEAGEYFMRLN
Consider B3, for which the binding result in the data set “non-reducing SDS-PAGE” was “binds”.
